From patent publication US20250340649A1 (RUTGERS THE STATE UNIVERSITY OF NEW JERSEY, published 2025)
Like-named read-outs stand apart in the source and are kept apart here.

Key:
[1] = target: T1, CD16a on NK92 (CD16+) cells (human, UniProt P08637 17-254); assay: flow cytometry, NK92 cells (CD16a+)
T1 construct: whole, on cells; also called NK92 cells (CD16a+); haNK92 cells (CD16a+)

[2] = target: T2, CD16b on neutrophils (human, UniProt O75015 17-200); assay: flow cytometry, neutrophils (CD16b+); value of the drawn table
T2 construct: whole, on cells; also called neutrophils (CD16b+)
T2 sequence (O75015 17-200): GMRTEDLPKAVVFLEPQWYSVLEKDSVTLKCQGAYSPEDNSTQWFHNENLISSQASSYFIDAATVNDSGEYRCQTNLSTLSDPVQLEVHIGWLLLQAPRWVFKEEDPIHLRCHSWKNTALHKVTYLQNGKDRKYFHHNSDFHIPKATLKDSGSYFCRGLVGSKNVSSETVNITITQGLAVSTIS

[3] = target: T2, CD16b on neutrophils; assay: flow cytometry, neutrophils (CD16b+)
[4] = target: T2, CD16b on neutrophils; assay: flow cytometry, neutrophils (CD16b+); value at the PE-H+ gate inside the histogram
[5] = target: T2, CD16b on neutrophils; assay: flow cytometry, neutrophils (CD16b+); value at the PE-H- gate inside the histogram
[6] = target: HER2 on the surface of HER2+ cancer cells (BT474, SKOV-3) (human) (UniProt P04626); assay: flow cytometry on BT-474 cells (HER2+)
[7] = target: HER2 on the surface of HER2+ cancer cells (BT474, SKOV-3) (human) (UniProt P04626); assay: flow cytometry on SKOV-3 cells (HER2+)
[8] = target: T3, HER2 on the surface of HER2+ cancer cells (BT474, SKOV-3) (human, UniProt P04626 23-1255); assay: flow cytometry on BT-474 cells (HER2+), 100 nM binding sites
T3 construct: whole, on cells; also called human epidermal growth factor receptor 2
Method: (§1) OVASC-1 is an ascites-derived epithelial ovarian cancer cells obtained from a patient with advanced metastatic disease (11, 12). The expressed VHHs were then incubated with HER2⁺ (BT474, JIMT-1, and SKOV-3) and HER2⁻ (MDA-MB-231) cancer cell lines. Approximately 10⁶ cells were counted and washed using DPBS-1% FBS. […] After washing, FITC-conjugated anti-Human IgG or anti-Histag antibody were added and incubated on ice for 60 min. Cells were washed three times and then analyzed using Beckman-Coulter Gallios flow cytometer at Rutgers Flow cytometry core facility.
(§2) In the next step, the ability of the VHHs to recognize and bind to HER2 on the surface of HER2+ cancer cells was evaluated. […] MDA-MB-231 and OVASC-1 (HER2⁻) cancer cells were used as negative controls.

[9] = target: T4, Biotinylated Human Her2/ErbB2 Protein, His, Avitag (AcroBiosystem HE2-H82E2) (human, UniProt P04626 23-652, biotinylated (Avitag)); assay: ELISA on HER2, tenfold dilutions 0-1000 nM; the HER2 form is not stated for this ELISA, Table 17 lists only the biotinylated HER2
T4 construct: Bought protein; Loaded on streptavidin sensors for BLI; also called biotinylated HER2; HER2 antigen

[10] = target: T3, HER2 on the surface of HER2+ cancer …; assay: flow cytometry on SKOV-3 cells (HER2+), 100 nM binding sites
Method: as §1, §2

[11] = target: T4, Biotinylated Human Her2/ErbB2 Protein, …; assay: BLI (Octet), biotinylated HER2 on streptavidin sensor
[12] = target: T3, HER2 on the surface of HER2+ cancer …; assay: flow cytometry, SKOV-3 (HER2+) cells, tenfold dilutions 0.001-1000 nM
[13] = target: T5, HER1 (human, UniProt P00533 25-645); assay: ELISA, periplasmic extract on coated antigen, anti-HA-HRP
T5 construct: The text says only 'HER1'; also called Recombinant human EGFR protein (Fc Chimera), Abcam ab155726; Fc part of the bought chimera not given
Description: (§3) FIGS. 4A-4B. FIG. 4A) PBMCs were isolated using Ficoll-Paque method. Then, the RNAs were extracted, cDNA library was generated, genes amplified, and then cloned into pMECS-GG phagemids. The phagemids were used in phage display and the screened candidates were used to infect TG1 bacteria. Colonies were selected, grown, lysed, and the lysates removed. FIG. 4B) The lysates were then used in ELISA to screen for VHHs with the highest affinity to HER2 and with negligible binding to HER1, HER3, and HER4. Bovine serum albumin (BSA) and skim milk were used as controls.
(§4) The next day, each well was washed three times with washing buffer (DPBS+0.1% Tween 20) and then incubated with blocking buffer (2% skimmed milk) for 2 h at RT to block the free binding sites. Next, blocking buffer was replaced with 100 μL of periplasmic extract from above and incubated for 1 h at RT while shaking at 700 rpm. Each well was washed six times with washing buffer (DPBS+0.1% Tween 20) followed by addition of 100 μL HRP Anti-HA tag antibody (1:10000 dilution) and incubation for 1 h at RT while shaking at 700 rpm. Each well was washed again six times, followed by addition of 50 μL 1-Step™ Turbo TMB-ELISA substrate solution at incubation at RT for 15 min (without shaking and at dark). The reaction was stopped by adding 50 μL of stop solution ([…] sulfuric acid) and the plate was read at 450 nm using 630 nm as a reference (450/630 nm).

[14] = target: T6, Bovine serum albumin (bovine, UniProt P02769 25-607); assay: as above
T6 construct: Control antigen; also called BSA
T6 sequence (P02769 25-607 limits assumed): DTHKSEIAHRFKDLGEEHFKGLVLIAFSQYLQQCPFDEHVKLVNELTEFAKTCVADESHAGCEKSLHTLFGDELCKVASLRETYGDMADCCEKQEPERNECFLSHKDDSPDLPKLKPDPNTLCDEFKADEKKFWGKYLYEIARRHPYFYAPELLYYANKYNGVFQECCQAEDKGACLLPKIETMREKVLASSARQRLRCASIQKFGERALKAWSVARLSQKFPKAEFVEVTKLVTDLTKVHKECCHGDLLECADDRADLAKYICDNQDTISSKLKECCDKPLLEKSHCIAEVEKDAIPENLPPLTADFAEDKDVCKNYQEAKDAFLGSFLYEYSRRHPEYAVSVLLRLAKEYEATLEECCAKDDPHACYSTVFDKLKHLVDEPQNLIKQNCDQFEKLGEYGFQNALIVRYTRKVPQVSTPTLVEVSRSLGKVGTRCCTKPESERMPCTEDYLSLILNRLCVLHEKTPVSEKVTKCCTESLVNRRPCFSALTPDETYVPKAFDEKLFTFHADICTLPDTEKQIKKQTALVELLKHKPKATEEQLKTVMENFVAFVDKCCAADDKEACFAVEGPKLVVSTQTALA
Description: as §3, §4

[15] = target: T7, HER3 (human, UniProt P21860 20-643, limits assumed); assay: as above
T7 construct: also called Recombinant Human ErbB 3 protein, Abcam ab196072
Description: as §3, §4

[16] = target: T4, Biotinylated Human Her2/ErbB2 Protein, …; assay: BLI (Octet), biotinylated HER2 on streptavidin sensor, VHH 1.875-60 nM
[17] = target: T8, Biotinylated Human Fc gamma RIIIB/CD16b (NA1) Protein, His, Avitag (Acrobiosystems CDB-H82E4) (human, UniProt O75015 17-200, biotinylated (Avitag)); assay: BLI (Octet), biotinylated CD16b-NA1 on streptavidin sensor, VHH 1.875-60 nM
T8 construct: NA1 allele; also called CD16b-NAI
T8 sequence (O75015 other isoform, or with tags, fused parts or gaps limits assumed): as the sequence (O75015 17-200) above, with S20R, N66D, I90V counted along it
Method: (§5) An Octet® Streptavidin (SA) Biosensor was soaked for at least 10 min in DPBS supplemented with 0.1% Casein, biotinylated CD16a, CD16b-NA1, CD16b-NA2, and HER2 antigens were loaded onto the streptavidin (SA) biosensor until 1 nm shift was reached. Next, the sensor was dipped into the washing buffer (DPBS+0.05% Tween 20+0.1% Casein) for 2 min to reach the baseline. […] Then, in the dissociation step, sensors were dipped into the washing buffer for 5 min to acquire data (Table 5). The data were then analyzed using Octet Data Analysis HT 11.1 software. The sensorgrams were subtracted from the reference and fitted into 1:1 binding model for data analysis. Finally, the affinity and kinetics were analyzed using “Association and Dissociation”.

[18] = target: T2, CD16b on neutrophils; assay: flow cytometry on neutrophils (CD16b+)
Method: For flow cytometry, haNK92 cells (CD16a+) and Neutrophils (CD16b⁺) were used. […] The human Neutrophil cells were purchased from HemaCare and cultured according to the manufacturer's protocol. First, both cell lines were harvested and washed once using DPBS supplemented with 2% FBS (2% DPBS-FBS). For each sample, 0.5×10⁶ cells were stained with antibody on ice for 60 min. In this experiment, 3G8 monoclonal antibody was used as a positive control. This antibody binds to both CD16a and CD16b. Following washing three times, the secondary antibody, anti-Histag antibody FITC labeled, was added. After washing, the samples were run on Cytoflex using FL2 channel.
In this experiment, NK92 cells (CD16a⁺), neutrophils (CD16b⁺), and B cells (CD32b⁺) were used as cell controls. 3G8 (anti-CD16a/b) and AT10 (anti-CD32a/b) mAbs were used as antibody controls.

[19] = target: T9, biotinylated CD32b (UniProt P31994 46-217, biotinylated); assay: ELISA, biotinylated antigen on streptavidin plate
T9 construct: also called CD32b antigen
T9 sequence (looked up): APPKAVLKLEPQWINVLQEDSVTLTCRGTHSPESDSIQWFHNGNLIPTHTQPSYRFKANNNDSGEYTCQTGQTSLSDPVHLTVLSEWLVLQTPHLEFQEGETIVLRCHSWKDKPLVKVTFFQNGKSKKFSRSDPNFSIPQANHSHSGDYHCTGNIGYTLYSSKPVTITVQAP
Method: The purified VHHs were subjected to functional analysis using ELISA and flow cytometry. For ELISA, 50 μL of biotinylated CD16a, CD16b-NA1, CD16b-NA2, and CD32b were added to the streptavidin-coated plate and incubated for 45 min at RT. Following washing, the 100 μL of 100 nM purified VHHs were added and incubated at RT for 1 h. Next, 100 μL anti-HA tag HRP conjugated secondary antibody was added. Finally, the substrate was added for color development, and the plate was read using OD of 450 nm.
CD32b and skim milk were also used as antigen controls. 3G8 and eBioCB16, which are anti-CD16a/b mAbs were used as antibody controls. […] CD32b is a receptor that is expressed on B cells and responsible for inhibiting B cell activation. One of the disadvantages of mAb-based therapies is the binding of their Fc region to CD32b leading to the diminished activity of humoral immunity.

[20] = target: T10, Biotinylated Human Fc gamma RIIIA/CD16a (F176) Protein, Avitag, His Tag (Acrobiosystems CDA-H82E8) (human, UniProt P08637 17-208, biotinylated (Avitag)); assay: BLI (Octet), biotinylated CD16a on streptavidin sensor, VHH 1.875-60 nM
T10 construct: also called biotinylated CD16a; CD16a antigen
T10 sequence (P08637 17-208 limits assumed): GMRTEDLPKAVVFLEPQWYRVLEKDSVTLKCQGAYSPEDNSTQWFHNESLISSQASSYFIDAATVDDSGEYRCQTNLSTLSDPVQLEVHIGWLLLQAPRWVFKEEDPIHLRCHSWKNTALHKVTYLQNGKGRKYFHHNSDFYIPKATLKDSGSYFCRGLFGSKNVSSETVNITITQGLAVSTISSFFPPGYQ
Method: as §5

[21] = target: T4, Biotinylated Human Her2/ErbB2 Protein, …; assay: BLI (Octet), biotinylated HER2 on streptavidin sensor, VHH 1.875-60 nM; remark: listed apart in the source

T1 sequence (P08637 17-254 F176V): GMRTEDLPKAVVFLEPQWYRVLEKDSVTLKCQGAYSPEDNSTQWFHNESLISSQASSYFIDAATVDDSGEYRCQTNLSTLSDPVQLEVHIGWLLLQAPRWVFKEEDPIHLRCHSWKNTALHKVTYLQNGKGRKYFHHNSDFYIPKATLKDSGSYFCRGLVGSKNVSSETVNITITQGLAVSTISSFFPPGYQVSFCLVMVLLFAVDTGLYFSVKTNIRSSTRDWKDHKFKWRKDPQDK

CD16 Monoclonal Antibody (3G8), Functional Grade, eBioscience
FITC+ [1]: 82.2%
FITC- [1]: 17.8%
MFI [1]: 88200
PE+ [2]: 61.1%
MFI [3]: 18000
PE- [3]: 38.1%
PE+ [4]: 61.9%

Isotype (antibody)
FITC+ [1]: 0.71%
FITC- [1]: 99.3%
MFI [1]: 25000
PE- [5]: 95.6%
PE- [2]: 90.6%
FITC+ (%) [6]: 0.45%
FITC- (%) [6]: 99.6%
Mean (MFI) [6]: 935
MFI [3]: 867
PE+ [3]: 4.42%
FITC+ (%) [7]: 0.97%
FITC- (%) [7]: 99%
Mean (MFI) [7]: 915

B1: E5 anti-HER2 VHH (VHH)
VHH: QVQLQESGGGLVQAGGSLRLDCAASGRTLSSYVVGWFRQAPGKEREVVAAIGWSRTSTFYTDSVKGRFTISRDNTENTVYLQMNSLKPGDTAVYYCAADSSPRRWDRESDFGSWGQGTQVTVSS
notes: also called E5 clone
FITC+ (%) [8]: 98.4%
FITC- (%) [8]: 1.59%
Mean (MFI) [8]: 102000
EC50 (read off the curve) [9]: ~0.3 nM
FITC+ (%) [10]: 93.3%
FITC- (%) [10]: 6.45%
Mean (MFI) [10]: 106000
Kd [11]: 0.724 nM
EC50 (read off the curve) [12]: ~1 nM
binding result [13]: no binding (tested: extract, conc. not given)
binding result [14]: no binding (tested: extract, conc. not given)
binding result [15]: no binding (tested: extract, conc. not given)
koff [16]: 0.000702 s⁻¹
kon [16]: 969000 M⁻¹ s⁻¹

B2: E3 anti-CD16a VHH (VHH)
VHH: QVQLQESGGGLVQAGGSARLSCAASGRTFRLYRMGWFRQAPGKEREFVASIKMIDGSSLFGDPVKGRFTISRDNTKFMVYLQMNSLKPEDTAVYYCASVSRNTGSWDSWGQGTQVTVSSYPYDVPDYAHHHHHHHH
notes: also called E3 clone; E3 VHH
Kd [17]: 31.7 nM
koff [17]: 0.0131 s⁻¹
kon [17]: 412000 M⁻¹ s⁻¹
binding result [18]: no binding
binding result [19]: no binding (tested: 100 nM)
Kd [20]: 0.579 nM
koff [20]: 0.000294 s⁻¹
kon [20]: 505000 M⁻¹ s⁻¹

B3: A1 anti-HER2 VHH (VHH)
VHH: QVQLQESGGGLVQPGGSLRLSCAASGHTLSTYVVAWFRQAPGKERESVAAIGWSSRSPYYPDSVKGRFTISEDNTKNTVYLQMNSLKPDDTAVYYCAADSYPRRWDRESDFGSWGQGTQVTVSS
notes: Llama VHH expressed in WK6 E. coli with C-terminal c-myc and His tags; also called A1 clone
Kd [21]: 1.32 nM
koff [21]: 0.000411 s⁻¹
kon [21]: 309000 M⁻¹ s⁻¹
FITC+ (%) [8]: 98.8%
FITC- (%) [8]: 1.23%
Mean (MFI) [8]: 97000
FITC+ (%) [10]: 94.1%
FITC- (%) [10]: 5.78%
Mean (MFI) [10]: 101000
Kd [11]: 1.3 nM
binding result [13]: no binding (tested: extract, conc. not given)
binding result [14]: no binding (tested: extract, conc. not given)
binding result [15]: no binding (tested: extract, conc. not given)
